Tests used:
Experiment in all cases: two-hybrid library CCNG1;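 further: natural log of median RNA to DNA barcode read ratio; higher means stronger binding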
4H3601-bA = biological target: T1, 4H3601-bA
T1 chain: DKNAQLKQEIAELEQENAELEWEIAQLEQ

4H4038-bA = biological target: T2, 4H4038-bA
T2 chain: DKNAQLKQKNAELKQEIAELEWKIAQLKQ

4H3907-bA = biological target: T3, 4H3907-bA
T3 chain: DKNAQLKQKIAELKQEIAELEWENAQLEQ

4H967-bN = biological target: T4, 4H967-bN
T4 chain: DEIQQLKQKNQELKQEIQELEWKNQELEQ

4H797-bN = biological target: T5, 4H797-bN
T5 chain: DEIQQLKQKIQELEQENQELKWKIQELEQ

O13-bP = biological target: T6, O13-bP
T6 chain: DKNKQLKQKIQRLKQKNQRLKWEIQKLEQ

4H908-bN = biological target: T7, 4H908-bN
T7 chain: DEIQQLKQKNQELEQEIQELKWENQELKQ

4H918-bN = biological target: T8, 4H918-bN
T8 chain: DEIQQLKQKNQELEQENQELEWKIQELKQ

4H72-bN = biological target: T9, 4H72-bN
T9 chain: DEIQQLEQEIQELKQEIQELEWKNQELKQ

4H953-bN = biological target: T10, 4H953-bN
T10 chain: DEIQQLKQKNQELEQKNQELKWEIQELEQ

4H883-bN = biological target: T11, 4H883-bN
T11 chain: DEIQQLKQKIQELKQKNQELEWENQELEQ

4H754-bN = biological target: T12, 4H754-bN
T12 chain: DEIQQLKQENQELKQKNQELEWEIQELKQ

4H3297-bN = biological target: T13, 4H3297-bN
T13 chain: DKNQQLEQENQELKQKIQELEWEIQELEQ

4H949-bN = biological target: T14, 4H949-bN
T14 chain: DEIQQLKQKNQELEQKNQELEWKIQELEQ

4H3381-bN = biological target: T15, 4H3381-bN
T15 chain: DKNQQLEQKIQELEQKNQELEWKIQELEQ

4H349-bN = biological target: T16, 4H349-bN
T16 chain: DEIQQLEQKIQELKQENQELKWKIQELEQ

4H3364-bN = biological target: T17, 4H3364-bN
T17 chain: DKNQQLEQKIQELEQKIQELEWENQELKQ

4H56-bN = biological target: T18, 4H56-bN
T18 chain: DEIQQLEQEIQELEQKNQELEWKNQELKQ

4H932-bN = biological target: T19, 4H932-bN
T19 chain: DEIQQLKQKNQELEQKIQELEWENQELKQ

4H730-bN = biological target: T20, 4H730-bN
T20 chain: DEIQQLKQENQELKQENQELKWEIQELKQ

P1bHq = biological target: T21, P1bHq
T21 chain: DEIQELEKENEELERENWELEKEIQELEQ

4H796-bN = biological target: T22, 4H796-bN
T22 chain: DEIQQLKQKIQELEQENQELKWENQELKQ

4H3041-bN = biological target: T23, 4H3041-bN
T23 chain: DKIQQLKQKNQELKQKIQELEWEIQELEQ

Work on DKNAQLKQEIAELEQENAELEWEIAQLEQ [4H3601-bA] yielded an interaction score (4H3601-bA) of -0.859, an interaction score (4H4038-bA) of -1.28 and an interaction score (4H3907-bA) of -1.15.

Work on DEIQQLEQEIQELKQEIQELEWKNQELKQ [4H72-bN] yielded an interaction score (4H967-bN) of -0.25, an interaction score (4H797-bN) of 0.632 and an interaction score (O13-bP) of -0.283. It also gave an interaction score (4H908-bN) of -0.234, an interaction score (4H918-bN) of 0.713 and an interaction score (4H72-bN) of 0.334. The interaction score (4H953-bN) was -0.727, the interaction score (4H883-bN) was 0.619 and the interaction score (4H754-bN) was -1.48.

DKIQQLKQKNQELKQKIQELEWEIQELEQ [4H3041-bN] showed an interaction score (4H3297-bN) of -2.23, an interaction score (4H949-bN) of -1.33 and an interaction score (4H3381-bN) of -1.06. For the same binder, the interaction score (4H349-bN) was -1.54, the interaction score (4H3364-bN) was -1.42 and the interaction score (4H56-bN) was -0.997. For the same binder, the interaction score (4H932-bN) was -1.42, the interaction score (4H730-bN) was -1.37 and the interaction score (P1bHq) was 0.154. It also gave an interaction score (4H796-bN) of -1.35 and an interaction score (4H3041-bN) of 0.754.

— PMC10397247
